Experimental data taken from publication doi:10.1101/2021.12.02.470928 (2021).
Where a chain is given by its changes, count along the chain named. Numbers in names are those of the source.

B1: PNUTS(1-148), PNUTS amino-terminal domain (PAD) (domain or fragment)
chain: MGSGPIDPKELLKGLDSFLNRDGEVKSVDGISKIFSLMKEARKMVSRCTYLNILLQTRSPEILVKFIDVGGYKLLNNWLTYSKTTNNIPLLQQILLTLQHLPLTVDHLKQNNTAKLVKQLSKSSEDEELRKLASVLVSDWMAVIRSQS
B2: biotinylated MYC(1-88 F23A) (domain or fragment)
chain: MPLNVSFTNRNYDLDYDSVQPYAYCDEEENFYQQQQQSELQPPAPSEDIWKKFELLPTPPLSPSRRSGLCSPSYVAVTPFSLRGDNDG
modifications: biotin on the C-terminal AVI tag
B3: biotinylated MYC(1-88 P21A) (domain or fragment)
chain: B2 chain with P21A, A23F
modifications: biotin on the C-terminal AVI tag
B4: biotinylated MYC(1-88 Y24A) (domain or fragment)
chain: B2 chain with A23F, Y24A
modifications: biotin on the C-terminal AVI tag
B5: biotinylated MYC(1-88 Y22A) (domain or fragment)
chain: B2 chain with Y22A, A23F
modifications: biotin on the C-terminal AVI tag

Key:
Assay in all cases: BLI
[1] = biological target: MYC(1-88 Q20A)
[2] = biological target: MYC(1-88)-Q20A
[3] = biological target: MYC(1-88)-V19A
[4] = biological target: MYC(1-88 V19A)
[5] = biological target: B1

| Kd [5] [µM] | Binder | also measured |
| --- | --- | --- |
|  | B1 | Kd [1]: 5.3 µM; Kd [2]: 5.3 µM; Kd [3]: 8.4 µM; Kd [4]: 8.4 µM |
| 19 | B2 |  |
| 19 | B3 |  |
| 37 | B4 |  |
| 24 | B5 |  |
